Reference: the nanobody polyreactivity screen of Harvey et al. (2022)

Experiment: yeast display, Sf9 membrane polyspecificity reagent, FACS + sequencing; frameworks hold sequencing errors
In short: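 Polyreactivity labels are assigned by the sorting gate from which each nanobody was recovered. The gates were low and high (top ~1%), set on anti-HA fluorescence for expression and streptavidin fluorescence for reagent binding. Before sorting, galactose-induced (36–48 hours) yeast display cells were stained for 1 hour at 4 °C with 10% biotinylated, detergent-solubilized Sf9 membrane reagent.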

| Sequence | polyreactivity (PSR sort gate) |
| --- | --- |
| QVQLVESGGGLVQAGGRLRLSCADSGRIFVKNTMGWYRQAPGKERELVAAISWSGGSTYYADSVKGRFTISRDNAKNTVYLQMNSLKPEDTAVYYCNARKRTKLSYPKFDYWGQGTQVTVSS | high polyreactivity |
| QVQLVESAGGLVQAGGSLRLSCAASGIIFRPNPLGWYRQAPGKERELVAAISKRGGSTYYADSVKGRFTISRDNAKNTVYLQMNSLKPEDTAVYYCAKRQQQSSGYDYWGQGTQVTVSS | high polyreactivity |
| QVQLVESGGGVVQARGSLRLSCAASGRIFYGYAMGWYRQAPGKERELVAAITRSSSTYYADSVKGRFTISRDNAKNTVYLQMNSLKPEDTAVYYCAAASRRSGASSWYDYWGQGTQVTVSS | high polyreactivity |
| QVQLVDSGGGLVQAGGSLCLSCPASGGTSRVNAMGWYRQAPGKETELVARIRSGGSTYYADSVKGRFTISRDNAKNTVYFKMNRLKPEDTAVYHCAAVPRRTGQQQDMDYWGQGTQVTVSS | high polyreactivity |
| QVQLVESGGGLVQAGRSLRISRAASGSIFYKNVMGWYRQAPGKERELVAAITSGGSTYYADSVKGRFTISRDNAKNTVYFQMNSVYPEYSAVYYWAAGFGRNPVSRYYWGQGTQVTVSS | high polyreactivity |
| QVQLVESGGGLVQAGGSLRLSCAASGLIFFTYAMGWYRQAPGKERELVAAITGRGGRTYYADSVKGRFTISRDNAKNTVYLQMNSLKPEDTAVYYCNAEYRYYQKTPGRYTNVEYDYWGQGTQVTVSS | low polyreactivity |
| QVQLVESGGGLVQAGGSLRLSCAASGFTFRSNAMGWYRQAPGKERELVAAISSNGGRTYYADSVKGRFTISRDNAKNTVYLQMNSLKPEDTAVYYCAARGGYSQKRHDSWGQGTQVTVSS | high polyreactivity |
| QVQLVESGGGLVQAGGSLRLSCAASGSTFDYNAKGSYRQAPGKERELVAVISSSGGSTYYADSVKGRFTISRDIAMNTVYLQMNSLKPVDTAVYYCAALYRNYGSSYAYYYWGLGTQVTVSS | low polyreactivity |
| QVQLVESGGGLVQAGGSLRLSCAASGSTFVANTMGWYRQAPGKERELGAAITSDGGSTSYADSVKGRFSISRDNAKNTVYLQMNSLKPEDTAVYHCAAEYGGSSAKYGYWGQGTQVTVSS | low polyreactivity |
| QVQLVESGGGLVQAGGSLRLSCAASGRTFNLYAMGWSRQAPGKERELVARITSGGSTNYADSEKGRFTISRDNAKNTVYLQMNSLKPEDTAVYYCAASSYNRGDYWGQGTQVTVSS | high polyreactivity |
| QGQLVESGGGLVQAGGSLSLSCAASGSIFQGYAMGWYRQAPGNEWEFVAAISESDGSTYYADSVKGRCTISRDNAKNTVYLQMNSLKPEDTAVYYCAADKQAYVTDDYWGQGTQVTVSS | high polyreactivity |
| QVQLVESGGGLVQAGGSLRLSCAASGRIFLVNAMGWYRQAPGKERELVAAINFISGSTYYADSVKGRFTISRDNAKNTVYLQMNSLKPEDTAVYYCAAYSYWSYVQRYKLEYDYWGQGTQVTVSS | low polyreactivity |
| QVQLVESGGGLVQAGGSLRLSCAASGSIFWWYGMGWDRQAPGKERELVADITSGGGTYYADSVKGRFTISRDNAKNTVYLQLNSLKPEDTAVYYCAADVRAYRFDYYFDYWGQGTQVTVSS | low polyreactivity |
| QVQLVESGGGLVQAGGSLRLSCAASGSIFSGYAMGWYRQAPGKERELVAAISRGGSTNYADSVKGRFTISRDNAKNTVYLQMNSLKPEDTAVYYCATTPTKYHYAFGYWGQGSQVTVSS | low polyreactivity |
| QVQLVESGGGLVQAGGSLRLSCAASGIIFRVYAMGWYRQAPGKERELVAAITKGGGRTYYADSVKGRFTISRDNAKNTVYLQMNSLKPEDTAVYYCAARSSSSFEYWGQGTQVTVSS | high polyreactivity |
| QVQLVESAGGLVQAGGSLRLSCDASGLTYSYYAMGWYIQAPGKERELVAAISWSGGSTYYADSVNGRFTISRDNAKNTVYLQMNSLKPEDTAVYYCAKYPNRHYWYDYWGQGTQVTVSS | low polyreactivity |
